Results taken from patent US20240309103A1 (Regeneron, published 2024).

Legend:
[1] = target: T1, hNPR1-mFc:hBNP complex (human, UniProt P16860 103-134); assay: SPR, mAb captured, 25C
T1 construct: also called human NPR1 complexed to BNP
Procedure: (§1) Equilibrium dissociation constant (KD) for different NPR1 reagents binding to purified anti-NPR1 monoclonal antibodies (mAbs) were determined using a real-time surface plasmon resonance based Biacore 4000 biosensor. All binding studies were performed in 10 mM HEPES, 150 mM NaCl, 3 mM EDTA, and 0.05% v/v Surfactant Tween-20, pH 7.4 (HBS-ET) running buffer at 25° C. and 37° C. The Biacore CM5 sensor chip surface was first derivatized by amine coupling with either mouse anti-human Fc specific mAb (GE Healthcare, #BR100839) or goat anti-human Fcy specific polyclonal antibody (Jackson ImmunoResearch Laboratories, #BR-1008-39) to capture anti-NPR1 mAbs.

[2] = target: T2, mfNPR1-mFc:hANP complex (monkey; human, UniProt P01160 124-151); assay: SPR, mAb captured, 25C
T2 construct: also called monkey NPR1 complexed to ANP
Procedure: as §1

[3] = target: T3, mfNPR1-mFc (monkey); assay: SPR, mAb captured, 25C
T3 construct: also called dimeric monkey NPR1
T3 chain: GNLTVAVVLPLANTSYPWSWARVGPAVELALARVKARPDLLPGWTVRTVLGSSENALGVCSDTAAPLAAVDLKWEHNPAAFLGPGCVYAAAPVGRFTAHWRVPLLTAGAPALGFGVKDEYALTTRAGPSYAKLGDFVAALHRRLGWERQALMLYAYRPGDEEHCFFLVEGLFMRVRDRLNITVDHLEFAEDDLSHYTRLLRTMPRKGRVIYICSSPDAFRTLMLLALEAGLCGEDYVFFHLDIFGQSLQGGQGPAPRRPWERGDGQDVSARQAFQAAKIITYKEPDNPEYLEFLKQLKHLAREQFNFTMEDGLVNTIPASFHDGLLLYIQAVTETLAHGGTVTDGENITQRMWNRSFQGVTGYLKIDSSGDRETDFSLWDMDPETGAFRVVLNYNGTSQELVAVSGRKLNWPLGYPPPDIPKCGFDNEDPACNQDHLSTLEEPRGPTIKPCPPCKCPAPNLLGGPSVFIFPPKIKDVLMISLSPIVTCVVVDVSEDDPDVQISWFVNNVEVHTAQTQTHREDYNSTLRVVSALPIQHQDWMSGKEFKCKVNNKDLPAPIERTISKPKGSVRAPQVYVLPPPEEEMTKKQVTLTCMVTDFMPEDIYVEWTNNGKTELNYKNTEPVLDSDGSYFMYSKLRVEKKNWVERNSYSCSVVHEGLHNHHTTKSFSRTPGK
Procedure: as §1

[4] = target: T4, mfNPR1-mFc:hBNP complex (monkey; human, UniProt P16860 103-134); assay: SPR, mAb captured, 25C
T4 construct: also called monkey NPR1 complexed to BNP
Procedure: as §1

[5] = target: T5, hNPR1-mFc:hANP or hNPR1-hFc:hANP complex (human, UniProt P01160 124-151); assay: SPR, mAb captured, 25C
T5 construct: also called human NPR1 complexed to ANP
Procedure: as §1

[6] = target: T1, hNPR1-mFc:hBNP complex; assay: SPR, mAb captured, 37C
Procedure: as §1

[7] = target: T2, mfNPR1-mFc:hANP complex; assay: SPR, mAb captured, 37C
Procedure: as §1

[8] = target: T3, mfNPR1-mFc; assay: SPR, mAb captured, 37C
Procedure: as §1

[9] = target: T5, hNPR1-mFc:hANP or hNPR1-hFc:hANP complex; assay: SPR, mAb captured, 37C
Procedure: as §1

B1: mAb22035 (antibody, human IgG4, V domains shown)
VH: EVQLVESGGGLVQPGRSLRLSCAASGFTFDDYAMHWVRQAPGKGLEWVSGISWNSGTIGYADSVKGRFTMSRDNAKNSLYLQMNSLRPEDTALYYCAKDMGVSLALWGAFDIWGQGTMVTVSS
VL: DIQMTQSPSSLSASVGDKVTITCRASQNIRTYLNWYQQKPGKAPKVLISTASSLQSGVPSRFSGSGSGTDFTLTISSLQPEDFAVFYCQQSFGIPRTFGQGTKVEIK
100 nM Ag Bound (RU) [1]: 194 RU | Kd [1]: 0.508 nM | koff [1]: 8.7e-05 s⁻¹ | kon [1]: 171000 M⁻¹ s⁻¹ | t½ [1]: 2.21 h | 100 nM Ag Bound (RU) [2]: 227 RU | Kd [2]: 0.246 nM | koff [2]: 4.66e-05 s⁻¹ | kon [2]: 189000 M⁻¹ s⁻¹ | t½ [2]: 4.13 h | 100 nM Ag Bound (RU) [3]: 231 RU | Kd [3]: 0.229 nM | koff [3]: 5.57e-05 s⁻¹ | kon [3]: 244000 M⁻¹ s⁻¹ | t½ [3]: 3.45 h | 100 nM Ag Bound (RU) [4]: 231 RU | Kd [4]: 0.3 nM | koff [4]: 6.13e-05 s⁻¹ | kon [4]: 205000 M⁻¹ s⁻¹ | t½ [4]: 3.14 h | 100 nM Ag Bound (RU) [5]: 186 RU | Kd [5]: 0.434 nM | koff [5]: 7.78e-05 s⁻¹ | kon [5]: 179000 M⁻¹ s⁻¹ | t½ [5]: 2.47 h | 100 nM Ag Bound (RU) [6]: 243 RU | Kd [6]: 0.553 nM | koff [6]: 0.000128 s⁻¹ | kon [6]: 232000 M⁻¹ s⁻¹ | t½ [6]: 1.5 h | 100 nM Ag Bound (RU) [7]: 283 RU | Kd [7]: 0.302 nM | koff [7]: 7.7e-05 s⁻¹ | kon [7]: 255000 M⁻¹ s⁻¹ | t½ [7]: 2.5 h | 100 nM Ag Bound (RU) [8]: 291 RU | Kd [8]: 0.184 nM | koff [8]: 8.44e-05 s⁻¹ | kon [8]: 459000 M⁻¹ s⁻¹ | t½ [8]: 2.28 h | 100 nM Ag Bound (RU) [9]: 237 RU | Kd [9]: 0.508 nM | koff [9]: 0.000114 s⁻¹ | kon [9]: 225000 M⁻¹ s⁻¹ | t½ [9]: 1.68 h

B2: mAb25479 (antibody, human IgG4, V domains shown)
VH: QVQLVQSGAEVKKPGASVKVSCKASGYTFTGYYIHWVRQAPGQGLEWMGWINPNSIGTNYAQKFQGRVTLTRDTSISTAYMELSSLRSDDTAVYYCARGGSSSYYYYYYGMDVWGQGTTVTVSS
VL: DIQMTQSPSSLSASVGDRVTITCRASQSIDNYLNWYQQKPGKAPKLLIYVASSLQSGVPSRFSGSGSGTDFTLTISSLQPEDFATYYCQQSYSTPLTFGGGTKVEIK
100 nM Ag Bound (RU) [1]: 50 RU | Kd [1]: 4.21 nM | koff [1]: 0.000123 s⁻¹ | kon [1]: 29200 M⁻¹ s⁻¹ | t½ [1]: 1.57 h | 100 nM Ag Bound (RU) [2]: 86 RU | Kd [2]: 2.44 nM | koff [2]: 0.000103 s⁻¹ | kon [2]: 42000 M⁻¹ s⁻¹ | t½ [2]: 1.88 h | 100 nM Ag Bound (RU) [3]: 54 RU | Kd [3]: 16.2 nM | koff [3]: 0.000507 s⁻¹ | kon [3]: 31200 M⁻¹ s⁻¹ | t½ [3]: 0.38 h | 100 nM Ag Bound (RU) [4]: 86 RU | Kd [4]: 2.95 nM | koff [4]: 0.000113 s⁻¹ | kon [4]: 38100 M⁻¹ s⁻¹ | t½ [4]: 1.71 h | 100 nM Ag Bound (RU) [5]: 49 RU | Kd [5]: 3.53 nM | koff [5]: 0.000109 s⁻¹ | kon [5]: 31000 M⁻¹ s⁻¹ | t½ [5]: 1.76 h | 100 nM Ag Bound (RU) [6]: 85 RU | Kd [6]: 3.83 nM | koff [6]: 0.000163 s⁻¹ | kon [6]: 42700 M⁻¹ s⁻¹ | t½ [6]: 1.18 h | 100 nM Ag Bound (RU) [7]: 138 RU | Kd [7]: 4 nM | koff [7]: 0.000219 s⁻¹ | kon [7]: 54700 M⁻¹ s⁻¹ | t½ [7]: 0.88 h | 100 nM Ag Bound (RU) [8]: 89 RU | Kd [8]: 28.1 nM | koff [8]: 0.00108 s⁻¹ | kon [8]: 38200 M⁻¹ s⁻¹ | t½ [8]: 0.178 h | 100 nM Ag Bound (RU) [9]: 84 RU | Kd [9]: 2.7 nM | koff [9]: 0.000134 s⁻¹ | kon [9]: 49700 M⁻¹ s⁻¹ | t½ [9]: 1.43 h
